{
  "source": "patent US20170151339A1",
  "about": "(priority 2014, published 2017)",
  "key": {"[1]": {"test_system": "NCI-H524 (ATCC) human lung cancer cells", "type": "cell-based", "settings": "for IC50: treated 2 hours, further incubated 70 hours", "experimental": "Conjugates were assessed in an in vitro assay evaluating inhibition of cell proliferation. NCI-H524 (ATCC) human lung cancer cells were plated in 96 well, V-bottomed plates (Costar) at a concentration of 5,000 cells/well and 24 hours later were treated with compound for 2 hours and further incubated 70 hours. Compound starting dose was 20 μM and three fold serial dilutions were done for a total of ten points. After 2 hours of treatment, cells were spun down, the drug containing media was removed, and fresh complete medium was added and used to resuspend the cells, which were spun again. After removal of the wash media, the cells were resuspended in complete medium, then transferred into white walled, flat bottomed 96 well plates. […] Proliferation was measured using CellTiter Glo reagent using the standard protocol (Promega) and a Glomax multi+detection system (Promega). Percent proliferation inhibition was calculated using the following formula: % inhibition=(control−treatment)/control*100. Control is defined as vehicle alone. IC50 curves were generated using the nonlinear regression analysis (four parameter) with GraphPad Prism 6."}, "[2]": {"assay": "Tolerability in rat PK study of cabazitaxel-RGD nanoparticles", "type": "in vivo", "settings": "rats, 1 mg/kg dose IV", "experimental": "(§1) For PK studies, a 0.1 mg/mL solution was dosed at 10 mL/kg such that a 1 mg/kg IV bolus dose was introduced by tail vein injection into rats Following compound administration, blood was collected at 0.083 h, 0.25 h, 0.5 h, 1 h, 2 h, 4 h, 8 h, and 24 h post dose into lithium heparin coated vacuum tubes. Tubes were inverted for 5 minutes and then placed on wet ice until centrifuged for 5 minutes at 4° C. at 6000 rpm. Plasma was harvested, frozen at −80° C. and shipped to for bioanalysis on dry ice."}, "[3]": {"assay": "Pharmacokinetics of cabazitaxel-RGD nanoparticles in rats", "type": "in vivo", "settings": "rat, 1 mg/kg IV bolus, plasma", "experimental": "Nanoparticles are typically formulated in 10% sucrose and free drug formulations varied, but are typically dosed in 10% SOLUTOL®/10% sucrose, or physiological saline.\nas §1\n50 uL of rat plasma were precipitated with 300 uL of DMF and the resulting supernatant was measured for compound content by LC-MS/MS electrospray ionization in the positive mode."}, "[4]": {"assay": "Rat pharmacokinetics of nanoparticle formulations of 1′", "type": "in vivo", "settings": "rats, 1 mg/kg IV bolus, plasma, dose normalized, Table 3", "experimental": "Nanoparticles described herein were typically formulated in 10% sucrose and free drug formulations were generally formulated typically dosed in 10% Solutol®/l 0% sucrose, or physiological saline.\n(§2) For pharmacokinetic studies, a 0.1 mg/mL solution was dosed at 10 mL/kg such that a 1 mg/kg IV bolus dose was introduced by tail vein injection into rats. Following compound administration, blood was collected at 0.083 hours, 0.25 hours, 0.5 hours, 1 hour, 2 hours, 4 hours, 8 hours, and 24 hours post-dose into lithium heparin coated vacuum tubes. Tubes were inverted for 5 minutes and then placed on wet ice until centrifuged for 5 minutes at 4° C. at 6000 rpm. Plasma was harvested, frozen at −80° C. and shipped to for bioanalysis on dry ice.\n50 uL aliquots of rat plasma were precipitated with 300 uL of DMF and the resulting supernatant was measured for compound content by LC-MS/MS electrospray ionization in the positive mode."}, "[5]": {"assay": "Solubility in aqueous media containing Tween 80", "type": "physicochemical", "settings": "aqueous Tween 80", "from_the_text": "In certain formulations, conjugate 1′ was used without any changes to its native lipophilicity (free conjugate). […] The tendency of conjugate 1 to retain in the nanoparticle despite a high aqueous solubility in Tween/water could be due to the high lipophilicity of cabazitaxel and its compatibility/miscibility with the polymeric matrix. The presence of leucine, proline, tryptophan and tyrosine in the LHRH peptide may also assist in the interaction of the conjugate with the polymeric matrix.\nIn certain formulations, conjugate 1 was used without any changes to its native lipophilicity (free conjugate). […] Without committing to any particular theory, the tendency of conjugate 1 to retain in the nanoparticle despite a high aqueous solubility in Tween®/water could be due to the high lipophilicity of cabazitaxel and its compatibility/miscibility with the polymeric matrix. The presence of two phenylalanine amino acids in the octreotide peptide may also assist in the interaction of the conjugate with the polymeric matrix.\nIn some formulations, conjugate 2 was used without any changes to its native lipophilicity (free conjugate). […] The tendency of 2 to be retained in the nanoparticle was reduced compared to 1."}, "[6]": {"assay": "Rat pharmacokinetics of nanoparticle formulations of 1 and 2", "type": "in vivo", "settings": "rats, 1 mg/kg IV bolus, plasma, dose normalized", "experimental": "Nanoparticles are typically formulated for in vivo delivery in 10% sucrose and free drug formulations varied, but are typically dosed in 10% Solutol®/10% sucrose, or physiological saline. In this example conjugate 1 without nanoparticle formulation was dosed as a solution in 20% propyleneglycol/80% aqueous sucrose (10%).\nas §2, with “For rat” for “For”, “studies using nanoparticles as described herein,” for “studies,”, “post dose” for “post-dose”\n50 uL of rat plasma was precipitated with 300 uL of DMF and the resulting supernatant was measured for compound content by LC-MS/MS electrospray ionization in the positive mode.\nRepresentative dose normalized rat pharmacokinetic curves for conjugate 1 and nanoparticle formulations of conjugate 1 are shown in FIG. 3.\nRepresentative dose normalized rat pharmacokinetic curves for conjugate 2 and nanoparticle formulations of conjugate 2 are shown in FIG. 4."}},
  "note": "Where a SMILES comes first, the peptide text is derived from it. Bridges are numbered along the chain shown (N, C = ends). [ ]: non-standard residue; d: D form. The star is where a group is joined. X1 = COc1cc2cc(c1Cl)N(C)C(=O)[C@H](OC(=O)[C@H](C)N(C)C(=O)CCS*)[C@]1(C)O[C@H]1[C@H](C)[C@@H]1C[C@@](O)(NC(=O)O1)[C@H](OC)/C=C/C=C(\\C)C2; Thr(ol) = C[C@@H](O)[C@H](N)CO",
  "data": [
    {"smiles": "COc1cc2cc(c1Cl)N(C)C(=O)C[C@H](OC(=O)[C@H](C)N(C)C(=O)CCSSCCC(=O)NCCOCCOCCOCCOCCOCCOCCOCCOCCC(=O)N[C@H](Cc1ccccc1)C(=O)N[C@H]1CSSC[C@@H](C(=O)N[C@H](CO)[C@@H](C)O)NC(=O)[C@H]([C@@H](C)O)NC(=O)[C@H](CCCCN)NC(=O)[C@@H](Cc3c[nH]c4ccccc34)NC(=O)[C@H](Cc3ccccc3)NC1=O)[C@]1(C)O[C@H]1[C@H](C)[C@@H]1C[C@@](O)(NC(=O)O1)[C@H](OC)/C=C/C=C(\\C)C2", "note": "[Conjugate 6]", "values": [
      {"measurement": "IC50", "setting": "[1]", "value": 234, "unit": "nM"}
    ]},
    {"smiles": "CCCCN(CCSSC[C@@H]1NC(=O)[C@@H](Cc2ccccc2)NC(=O)[C@H](CC(=O)O)NC(=O)CNC(=O)[C@H](CCCNC(=N)N)NC1=O)C(=O)O[C@@H](C(=O)OC1C[C@@]2(O)[C@@H](OC(=O)c3ccccc3)[C@@H]3[C@]4(OC(C)=O)CO[C@@H]4C[C@H](OC)[C@@]3(C)C(=O)[C@H](OC)C(=C1C)C2(C)C)[C@@H](NC(=O)OC(C)(C)C)c1ccccc1", "note": "(stereo partly drawn) [BT-568]", "values": [
      {"measurement": "tolerability observations post dose", "setting": "[2]", "value": "lethargy and labored breathing were observed immediately post dose in all three rats"},
      {"measurement": "mortality", "setting": "[2]; three rats", "value": "one of the three animals died"},
      {"measurement": "AUC", "setting": "[3]", "value": 5.3, "unit": "µM·h"}
    ]},
    {"smiles": "COc1cc2cc(c1Cl)N(C)C(=O)C[C@H](OC(=O)[C@H](C)N(C)C(=O)CCSSCCC(=O)N[C@H](Cc1ccccc1)C(=O)N[C@H]1CSSC[C@@H](C(=O)N[C@H](CO)[C@@H](C)O)NC(=O)[C@H]([C@@H](C)O)NC(=O)[C@H](CCCCN)NC(=O)[C@@H](Cc3c[nH]c4ccccc34)NC(=O)[C@H](Cc3ccccc3)NC1=O)[C@]1(C)O[C@H]1[C@H](C)[C@@H]1C[C@@](O)(NC(=O)O1)[C@H](OC)/C=C/C=C(\\C)C2", "note": "[Conjugate 4]", "values": [
      {"measurement": "IC50", "setting": "[1]", "value": 229, "unit": "nM"}
    ]},
    {"smiles": "COc1cc2cc(c1Cl)N(C)C(=O)[C@H](OC(=O)[C@H](C)N(C)C(=O)CCSSC[C@H](N)C(=O)N[C@@H](CCCCN)C(=O)N[C@@H](CCCCN)C(=O)N[C@@H](CCCCN)C(=O)N[C@@H](CCCCN)C(=O)N[C@H](Cc1ccccc1)C(=O)N[C@H]1CSSC[C@@H](C(=O)N[C@H](CO)[C@@H](C)O)NC(=O)[C@H]([C@@H](C)O)NC(=O)[C@H](CCCCN)NC(=O)[C@@H](Cc3c[nH]c4ccccc34)NC(=O)[C@H](Cc3ccccc3)NC1=O)[C@]1(C)O[C@H]1[C@H](C)[C@@H]1C[C@@](O)(NC(=O)O1)[C@H](OC)/C=C/C=C(\\C)C2", "note": "[Conjugate 7] (H-C(X1)KKKK[dF]CF[dW]KTC[Thr(ol)]; disulfide 7-12)", "values": [
      {"measurement": "IC50", "setting": "[1]", "value": 955, "unit": "nM"}
    ]},
    {"smiles": "CC[C@H](C)[C@@H]([C@@H](CC(=O)N1CCC[C@H]1[C@H](OC)[C@@H](C)C(=O)N[C@H](C)[C@@H](O)c1ccccc1)OC)N(C)C(=O)[C@@H](NC(=O)[C@H](C(C)C)N(C)C(=O)OCc1ccc(NC(=O)[C@H](CCCNC(N)=O)NC(=O)[C@@H](NC(=O)CCCCCN2C(=O)CC(SCCC(=O)N[C@H](Cc3ccccc3)C(=O)N[C@H]3CSSC[C@@H](C(=O)N[C@H](CO)[C@@H](C)O)NC(=O)[C@H]([C@@H](C)O)NC(=O)[C@H](CCCCN)NC(=O)[C@@H](Cc4c[nH]c5ccccc45)NC(=O)[C@H](Cc4ccccc4)NC3=O)C2=O)C(C)C)cc1)C(C)C", "note": "(stereo partly drawn) [Conjugate 5]", "values": [
      {"measurement": "IC50", "setting": "[1]", "value": 433, "unit": "nM"}
    ]},
    {"smiles": "CO[C@H]1C(=O)[C@]2(C)[C@@H](OC)C[C@H]3OC[C@@]3(OC(C)=O)[C@H]2[C@H](OC(=O)c2ccccc2)[C@]2(O)C[C@H](OC(=O)[C@H](OC(=O)OCCSSCCC(=O)N[C@H](Cc3ccccc3)C(=O)N[C@H]3CSSC[C@@H](C(=O)N[C@H](CO)[C@@H](C)O)NC(=O)[C@H]([C@@H](C)O)NC(=O)[C@H](CCCCN)NC(=O)[C@@H](Cc4c[nH]c5ccccc45)NC(=O)[C@H](Cc4ccccc4)NC3=O)[C@@H](NC(=O)OC(C)(C)C)c3ccccc3)C(C)=C1C2(C)C", "note": "[Conjugate 1]", "values": [
      {"measurement": "AUC(0-inf)", "setting": "[4]", "value": 2.19, "unit": "µM·h"},
      {"measurement": "IC50", "setting": "[1]", "value": 110, "unit": "nM"},
      {"measurement": "solubility", "setting": "[5]", "value": "> 7000", "unit": "µg/mL"},
      {"measurement": "solubility in aqueous media containing surfactant", "setting": "[5]", "value": "high solubility"},
      {"measurement": "AUC(0-inf)", "setting": "[6]; conjugate 1 and its nanoparticles, Table 11", "value": 18.3, "unit": "µM·h"}
    ]},
    {"smiles": "COc1cccc2c1C(=O)c1c(O)c3c(c(O)c1C2=O)C[C@@](O)(C(=O)COC(=O)CCCC(=O)N[C@H](Cc1ccccc1)C(=O)N[C@H]1CSSC[C@@H](C(=O)N[C@H](CO)[C@@H](C)O)NC(=O)[C@H]([C@@H](C)O)NC(=O)[C@H](CCCCN)NC(=O)[C@@H](Cc2c[nH]c4ccccc24)NC(=O)[C@H](Cc2ccccc2)NC1=O)C[C@@H]3O[C@H]1C[C@H](N)[C@H](O)[C@H](C)O1", "note": "[Example 2]", "values": [
      {"measurement": "AUC(0-inf)", "setting": "[6]; conjugate 2 and its nanoparticles, Table 12", "value": 14.3, "unit": "µM·h"}
    ]},
    {"smiles": "C[C@@H](O)[C@@H]1NC(=O)[C@H](CCCCN)NC(=O)[C@@H](Cc2c[nH]c3ccccc23)NC(=O)[C@H](Cc2ccccc2)NC(=O)[C@@H](NC(=O)[C@H](N)Cc2ccccc2)CSSC[C@@H](C(=O)N[C@H](CO)[C@@H](C)O)NC1=O", "note": "[Octreotide, reference compound]", "values": [
      {"measurement": "effect on cell proliferation", "setting": "[1]; octreotide alone", "value": "no significant effect"}
    ]},
    {"smiles": "CCCCN(CCSSCCC(=O)N[C@H](Cc1ccccc1)C(=O)N[C@H]1CSSC[C@@H](C(=O)N[C@H](CO)[C@@H](C)O)NC(=O)[C@H]([C@@H](C)O)NC(=O)[C@H](CCCCN)NC(=O)[C@@H](Cc2c[nH]c3ccccc23)NC(=O)[C@H](Cc2ccccc2)NC1=O)C(=O)O[C@@H](C(=O)O[C@H]1C[C@@]2(O)[C@@H](OC(=O)c3ccccc3)[C@@H]3[C@]4(OC(C)=O)CO[C@@H]4C[C@H](OC)[C@@]3(C)C(=O)[C@H](OC)C(=C1C)C2(C)C)[C@@H](NC(=O)OC(C)(C)C)c1ccccc1", "note": "[Conjugate 3]", "values": [
      {"measurement": "IC50", "setting": "[1]", "value": "> 20000", "unit": "nM"}
    ]}
  ]
}
